# B1: 252E7C9 (antibody, V domains shown)
# VH: QTYLQQSGAELVRSGASVKMSCRTSGYSFTSHNMHWVKQTPGQGLEWIGYIYPGNGGSYYNQKFKGKAILTADTSSSTAYMQISSLTSEDSAVYFCTRDYYGNSFVYWGQGTLVTVSA
# VL: DVVMTQSPSSLTEKTGEKVSMSCKSSQSLLNSGNQKNYLTWYQQKPGQPPKLLIYWASTRESGVPDRFTGSGSGTDFTLTISSLQTEDLAIYYCQNNFRYPFTFGAGTKLELK
# notes: mouse hybridoma mAb
# B2: 279E8B8 (antibody, V domains shown)
# VH: QAYLQQSGAELVRSGASVKISCKASGYTFASHNMHWVKQTPGQGLEWIGYIYPGNGGTKYNQKFTGKATLSADTSSSTAYLQISSLTSEDSAVYFCARDYFGNSFVYWGQGTLVTVSA
# VL: DIVMTQSPSSLTEKAGEKVSMRCKSSQSLLNSGNQKNYLTWYQQKPGQPPKLLIYWASTRESGVPDRFTGSGSGTDFTLTISSVQADDLAVYYCQNDYMYPFTFGAGTKLELK
# notes: mouse hybridoma mAb
# B3: 265E6G2 (antibody, V domains shown)
# VH: QAYLQQSGAELVRSGASVKMSCKASGYTFTSYNMHWVKQTPGQGLEWIGYIYPGNGGTNYNQKFKGKATLTADTSSSTAYMQISSLTSEDSAVYFCARDYYGNSFAYWGQGTLVTVSA
# VL: DLVMTQSPSSLTVTAGEKVTMSCKSSQSLLNSGNQKNYLTWYQQKPGQPPKLLIYWASTRESGVPDRFTGSGSGTDFTLTISNIQAEDLAVYYCQNDYSYPLPFGAGTKLELR
# notes: mouse hybridoma mAb
# B4: 260F8A6 (antibody, V domains shown)
# VH: QAYLQQSGAELVRSGASVKMSCRASGYTFTSHNMHWVKQTPGQGLEWIGYIYPGNGNTYYNQKFKGKATLTADTSSNTAYMQINSLTSEDSAVYFCVRDYYGNSFVYWGQGTLVTVSA
# VL: DVVMTQSPSSLTEKTGEKVSMSCKSSQSLLNSGNQKNYLTWYQQKPGQPPKLLIYWASTRESGVPDRFIGSGSGTDFTLTISSLQTEDLAVYYCQNNYMYPFTFGAGTKLELK
# notes: mouse hybridoma mAb
# B5: 246B5F2 (IgM) (antibody, V domains shown)
# VH: EVMLVESGGGLMKPGGSLKLSCAASEFTFSNYAMSWVRQTPEKRLEWVATISSGRSSTYYPDSVKGRFTISRDNAKNTLYLQMSSLRSEDTAMYYCAGLGRGNAMEYWGQGTSVTVSS
# VL: DIVMTQSPSSLTVTAGEKVTLSCKSSQSLLNSGNQKNYLTWYQQKPGQPPKLLIYWASTRESGVPDRFTGSGSGTDFILTINSVQAEDLAVYYCQNAYSYPFTFGSGTKLEIK
# notes: mouse hybridoma mAb, IgM
# B6: 391F1G2 (antibody, V domains shown)
# VH: DVQLVESGGGLVQPGGSRKLSCAASGFTFSSFGMHWVRQAPEKGLEWVAYISSGSSPIYYADTVKGRFTISRDNPKNTLFLQMTSLRSEDTAMYFCARIYYGNSFAYWGQGTLVTVSA
# VL: DIVMTQSPSSLTVTAGEKVAMSCKSSQTLLNSGNQKNYLTWYQQKPGQPPKLLLYWASTRESGVPDRFTGSGSGTDFTLTISSVQAEDLAVYYCQNAYYYPLTFGSGTKLELK
# notes: mouse hybridoma mAb
# B7: 242F5H2 (antibody, V domains shown)
# VH: EVMLVESGGGLVKPGGSLKLSCAASGFTFSSYTVSWVRQTPEKRLEWVATSIVGSTYTYFPDSVKGRFTISRDFAKNTLFLQMSSLRSEDTAMYYCSRLGRGNAMDYWGQGTSVSVSS
# VL: DIVMTQSPSSLTVTAGEKVTLNCRSSQSLLNSGNQKNYLTWYQQKPGQPPKLLIYWASTRESGVPDRFTGSGSGTDFTLTISSVQADDLAVYYCQNGYSYPFTFGSGTKLEIK
# notes: mouse hybridoma mAb
# B8: 406F11G8 (antibody, V domains shown)
# VH: DVQLVESGGGLVQPGGSRKLSCAASGFTFSSFGMHWVRQAPEKGLEWVAYISSGSSPIYYADTVKGRFTISRDNSKNTLFLQMTSLRSEDTAMYFCARIYYGNSFAYWGQGTLVTVSA
# VL: DIVMTQSPSSLTVTAGEKVAMSCKSSQTLLNSGNQKNYLTWYQQKPGQPPKLLIYWASTRESGVPDRFTGSGSGTDFTLTISSVQAEDLAVYYCQNAYYYPLTFGSGTKLELK
# notes: mouse hybridoma mAb
# B9: 271B1B6 (antibody, V domains shown)
# VH: QAYLQQSGAELVRSGASVKMSCKASGYTFTNYNIHWVKQTPGQGLEWIGYIYPGNGGNYYNQKFKGKATLTADTSSITAYMQISSLTSEDSAVYFCARDYYGNSFAYWGQGTLVTVSA
# VL: DIVMTQSPSSLTVTAGEKVTMNCKSSQSLLNSGNQKNYLTWYQQKPGQPPKLLIYWASTRESGVPDRFTGSGSGTDFTLTISSVQAEDLAIYYCQNDYYYPLTFGAGTKLELK
# notes: mouse hybridoma mAb
# B10: 275B2G2 (antibody, V domains shown)
# VH: EVMLVESGGGLVKPGGSLKLSCAASGFTFRDYTMSWVRQTPEKRLEWVATSIIGGTYTYYPDSVKGRFTISRDNVKNTLYLQMSSLRSEDTAMYYCSRLGRGNAMDYWGQGTSVTVSS
# VL: DIVMTQSPSSLTVTAGEKVTMSCKSSQSLLNSGNQKNYLTWYQQKPGQPPKLLIYWASTRESGVPDRFTGSGSGTDFTLTISSVQAEDLAVYYCQNDYSYPFTFGSGTKLEIK
# notes: mouse hybridoma mAb
# B11: 254A8D5 (antibody, V domains shown)
# VH: EVMLVESGGGLVKPGGSLKLSCAASGFTFSSYTVSWVRQTPEKRLEWVATSIVGSTYTYFPDSVKGRFTISRDFAKNTLFLQMSSLRSEDTAMYYCSRLGRGNAMDYWGQGTSVSVSS
# VL: DIVMTQSPSSLTVTAGEKVTLNCRSSQSLLNSGNQKNYLTWYQQKPGQPPKLLIYWASTRESGVPDRFTGSGSGTDFTLTISSVQADDLAVYYCQNGYSYPFTFGSGTKLEIK
# notes: mouse hybridoma mAb
# B12: 392A11C8 (antibody, V domains shown)
# VH: DVQLVESGGGLVQPGGSRKLSCAASGFTFSGFGMHWIRQTPEKGLEWVAYISSGSRPIYYADTVKGRFTISRDNPKNTLFLQMTSLRSEDTAMYFCARFYYGNSFDHWGQGTLVTVSA
# VL: DIVMTQSPSFLTVTAGEKVTMSCRSSQSLLNSGNQKNYLTWYQQKPGQPPKLLIYWASTRESGVPDRFTGSGSGTDFTLTISSVQAEDLALYYCQNAYSFPLTFGAGTKLELK
# notes: mouse hybridoma mAb
# B13: 406E1H7 (antibody, V domains shown)
# VH: DVQLVESGGGLVQPGGSRKLSCAASGFTFSGFGMHWIRQTPEKGLEWVAYISSGSRPIYYADTVQGRFTISRDNPKNTLFLQMTSLRSEDTAMYFCARFYYGNSFDHWGQGTLVTVSS
# VL: DIVMTQSPSFLTVTAGEKVTMSCKSSQSLLNSGNQKNYLTWYQQKPGQPPKLLIYWASTRESGVPDRFTGSGSGTDFTLTISSVQAEDLALYYCQNAYSFPLTFGAGTKLELK
# notes: mouse hybridoma mAb
# B14: 394C2G5 (antibody, V domains shown)
# VH: DVQLVESGGGLVQPGGSRKLSCAASGFTFSGFGMHWIRQTPEKGLEWVAYVSSGSRPIYYADTVKGRFTISRDNPKNTLFLQMTSLRSEDTAMYFCARFYYGNSFDHWGQGTLVTVSA
# VL: DIVMTQSPSFLTVTAGEKVTMSCKSSQSLLNSGNQKNYLTWYQQKPGQPPKLLIYWASTRESGVPDRFTGSGSGTDFTLTINNVQAEDLALYYCQNAYSFPLTFGAGTKLELT
# notes: mouse hybridoma mAb
# B15: 395B3C11 (antibody, V domains shown)
# VH: DVQLVESGGGLVQPGGSRKLSCAASGFTFSGFGMHWIRQTPEKGLEWVAYISSGSRPIYYADTVQGRFTISRDNPKNTLFLQMTSLRSEDTAMYFCARFYYGNSFDHWGQGTLVTVSS
# VL: DIVMTQSPSFLTVTAGEKVTMSCKSSQSLLNSGNQKNYLTWYQQKPGQPPKLLIYWASTRESGVPDRFTGSGSGTDFTLTISSVQAEDLALYYCQNAYSFPLTFGAGTKLELK
# notes: mouse hybridoma mAb
# B16: 391H11H3 (antibody, V domains shown)
# VH: DVQLVESGGGLVQPGGSRKLSCAASGFTFSGFGMHWIRQTPEKGLEWVAYISSGSRPIYYADTVQGRFTISRDNPKNTLFLQMTSLRSEDTAMYFCARFYYGNSFDHWGQGTLVTVSS
# VL: DIVMTQSPSFLTVTAGEKVTMSCKSSQSLLNSGNQKNYLTWYQQKPGQPPKLLIYWASTRESGVPDRFTGSGSGTDFTLTISSVQAEDLALYYCQNAYSFPLTFGAGTKLELK
# notes: mouse hybridoma mAb
# B17: 259B4D4 (antibody, V domains shown)
# VH: EIQLQQSGPELMKPGASVRISCKASGYSFTSYYMHWMKQSHVKSLEWIGYIDPFNGNTRYNQKFKDKATLTVDKSSTTAYMHLSSLTSEDSAVYFCASLRFFAYWGQGTLVTVSA
# VL: DIVMTQSPSSLTVTAGEKVTMSCNSSQSLLNSGNQKNYLTWYQQKPGQPPKLLIYWASSRESGVPDRFTGSGSGTDFTLTISTVQAEDLAVYYCQNDYSFPLTFGAGTRLELK
# notes: mouse hybridoma mAb
# B18: 252C10F6 (antibody, V domains shown)
# VH: QVHLKQSGRGLVQPSQSLSITCTVSGFSLPNYGVHWVRQPPGKGLEWLGVIWSGGNTDYNTVFKARLSITKDNSKSQVFFKMNSLQADDTAIYYCARNLYGNYDYAMDYWGQGTSVTVSS
# VL: DIVMTQSPATLSVTPGDRVSLSCRASQSISDYLHWYQQKSHESPRLLIKYASQSISGIPSRFSGSGSGSEFTLSINSVEPEDVGVYYCQNGHSFPFTFGSGTKLEIK
# notes: mouse hybridoma mAb
# B19: 292D9C7 (antibody, V domains shown)
# VH: QVQLKESGPGLVAPSQSLSITCTVSGFSLTDYGVSWIRQPPGKGLEWLGVIWGGGNAYYNSALKSRLSISKDNSKSQVFLKMNSLRTDDTAMYYCAKNGLLRYLDYWGQGSTLTVSS
# VL: DTVMTQSPSSLTVTAGEKVTMSCKSSQSLLNSGNQKNYLTWYQQKPGQPPKLLIYWASTRESGVPDRFTGSGSGRDFTLTISSVQVEDLAIYYCQNDYYYPLTFGAGTKVELK
# notes: mouse hybridoma mAb
# B20: 286C7F11 (antibody, V domains shown)
# VH: QVQLKESGPGLVAPSQSLSITCTVSGFSLTDYGVSWIRQPPGKGLEWLGVIWNRGNTYYNSALKSRLSISKDNSKSQVFLRMNSLQTDDTAMYYCAKHDFLRFLDYWGQGTTLTVSS
# VL: DVVMTQSPSSLTVTAGEKVTMSCKSSQSLLNSGNQKNYLTWYQQKPGQPPKILIYWASTRESGVPDRFTGSGSGTDFSLTITSVQAEDLAVYYCLNDYYYPLTFGAGTKLELK
# notes: mouse hybridoma mAb
# B21: 273F3D4 (antibody, V domains shown)
# VH: QVQLKESGPGLVAPSQSLSITCTVSGFALTTYGVSWVRQPPGKGLEWLGVIWGDGSTHYHSALISRLSIRKDNSKSQVFLKLNSLQTDDTATYYCAKPGRGNAMDYWGQGTSVTVSS
# VL: DIVMSQSPSSLTVTAGEKVTMSCKSSQSLLNSGNQKNYLTWYQQKPGQSPKLLIYWASTRESGVPDRFTGSGSGTDFTLTISSMQAEDLAVYYCQNDYIYPLTFGAGTMLELK
# notes: mouse hybridoma mAb
# Target: T1, human Claudin18.2 (human)
# T1 construct: also called CLDN18.2
# Assay: cell ELISA, Claudin18.2-expressing HEK293T cells
# In short: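 Claudin18.2-expressing HEK293T stable cells (1.5×10⁶ cells/ml in 5% skim milk/PBS blocking buffer) were incubated 1 h at room temperature in plates pre-blocked overnight at 4° C. EC₅₀ was derived by four-parameter curve fit.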
row,Binder,EC50
1,B1,~0.37 nM
2,B2,~9.62 nM
3,B3,~14 nM
4,B4,1.8 nM
5,B5,6.59 nM
6,B6,~2.66 nM
7,B7,~0.403 nM
8,B8,1.83 nM
9,B9,~0.429 nM
10,B10,~2.06 nM
11,B11,0.982 nM
12,B12,1.21 nM
13,B13,4.33 nM
14,B14,2.81 nM
15,B15,3.58 nM
16,B16,2.97 nM
17,B17,~0.378 nM
18,B18,~12.5 nM
19,B19,0.875 nM
20,B20,~0.0831 nM
21,B21,1.13 nM
